From paper PMC2602781 come the findings set out here.

Series [1] has as its target I-Vdi141I … homing endonuclease, wild type (Vulcanisaeta distributa strain IC-141). As to the kind of experiment: SEC.
The target in series [2] is T1, I-Vdi141I I65M/I107M (selenomethionyl) (V. distributa strain IC-141, UniProt Q6L703 1-169, I65M;I107M).
T1 sequence: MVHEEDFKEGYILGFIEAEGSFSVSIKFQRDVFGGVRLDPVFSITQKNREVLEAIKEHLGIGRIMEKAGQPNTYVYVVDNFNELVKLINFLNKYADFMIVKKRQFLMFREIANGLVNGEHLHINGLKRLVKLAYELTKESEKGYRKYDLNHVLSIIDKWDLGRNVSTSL
Description: X-ray crystallography.

The stoichiometry N is a count of units in the complex or per binding partner.

“I-Vdi141I … homing endonuclease, wild type (enzyme)” registered a stoichiometry N in series [1] of 2.

B1: 22 bp I-Vdi141I target site duplex (dsDNA)
DNA 1: CTGACTCTCTTAAGGTAGCCAA
DNA 2: TTGGCTACCTTAAGAGAGTCAG
Turning to B1, the binding result in series [2] is recorded as “binds”.
